The source of these data is PMC3444475.

pKd: −log10 of the molar value. Read-outs that look alike come from different tables or passages of the source.

The target in one assay is α5β1 integrin (UniProt P08648). As to the kind of experiment: optical biosensor (IAsys); α5β1 integrin immobilised; free LG3 at 3.1×10^−8 M to 3.1×10^−7 M, D3904A DV at 8.0×10^−8 M to 4.0×10^−7 M; global fitting; Kd calculated as koff/kon.
For assay [1], the target named is integrin α2β1 α2 ligand binding domain (Homo sapiens) (UniProt P17301). Conditions: cited from earlier work.
Sequence of integrin α2β1 α2 ligand binding domain (Homo sapiens) (P17301 30-1132, chain 1 of 2): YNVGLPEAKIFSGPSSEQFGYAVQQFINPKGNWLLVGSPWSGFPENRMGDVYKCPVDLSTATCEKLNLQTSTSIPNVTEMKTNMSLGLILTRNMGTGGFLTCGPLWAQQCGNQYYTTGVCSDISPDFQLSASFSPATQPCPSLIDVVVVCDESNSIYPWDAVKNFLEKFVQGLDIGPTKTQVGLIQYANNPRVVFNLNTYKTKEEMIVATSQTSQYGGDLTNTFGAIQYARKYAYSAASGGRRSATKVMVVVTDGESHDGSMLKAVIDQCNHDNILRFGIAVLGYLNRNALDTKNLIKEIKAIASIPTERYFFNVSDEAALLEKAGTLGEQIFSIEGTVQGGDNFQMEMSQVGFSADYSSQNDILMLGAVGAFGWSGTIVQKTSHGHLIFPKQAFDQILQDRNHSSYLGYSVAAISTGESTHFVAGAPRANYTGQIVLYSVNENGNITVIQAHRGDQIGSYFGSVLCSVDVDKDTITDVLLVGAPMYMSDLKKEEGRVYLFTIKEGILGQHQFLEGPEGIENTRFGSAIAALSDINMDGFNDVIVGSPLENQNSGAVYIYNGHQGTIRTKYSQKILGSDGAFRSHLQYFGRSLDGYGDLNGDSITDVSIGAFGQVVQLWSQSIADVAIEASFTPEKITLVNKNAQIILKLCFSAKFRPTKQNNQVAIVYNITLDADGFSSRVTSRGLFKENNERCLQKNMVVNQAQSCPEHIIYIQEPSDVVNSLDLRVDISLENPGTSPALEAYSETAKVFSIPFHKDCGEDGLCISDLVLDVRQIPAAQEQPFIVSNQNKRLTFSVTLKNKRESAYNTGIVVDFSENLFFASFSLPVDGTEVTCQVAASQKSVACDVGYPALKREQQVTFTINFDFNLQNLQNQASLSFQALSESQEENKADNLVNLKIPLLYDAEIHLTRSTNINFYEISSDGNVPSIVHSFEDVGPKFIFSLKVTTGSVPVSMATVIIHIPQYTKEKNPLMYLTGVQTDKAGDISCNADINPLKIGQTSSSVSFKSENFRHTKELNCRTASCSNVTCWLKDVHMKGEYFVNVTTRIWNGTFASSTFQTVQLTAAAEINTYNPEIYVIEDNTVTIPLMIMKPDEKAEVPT
Sequence of integrin α2β1 α2 ligand binding domain (Homo sapiens) (P05556 21-728, chain 2 of 2, further chain): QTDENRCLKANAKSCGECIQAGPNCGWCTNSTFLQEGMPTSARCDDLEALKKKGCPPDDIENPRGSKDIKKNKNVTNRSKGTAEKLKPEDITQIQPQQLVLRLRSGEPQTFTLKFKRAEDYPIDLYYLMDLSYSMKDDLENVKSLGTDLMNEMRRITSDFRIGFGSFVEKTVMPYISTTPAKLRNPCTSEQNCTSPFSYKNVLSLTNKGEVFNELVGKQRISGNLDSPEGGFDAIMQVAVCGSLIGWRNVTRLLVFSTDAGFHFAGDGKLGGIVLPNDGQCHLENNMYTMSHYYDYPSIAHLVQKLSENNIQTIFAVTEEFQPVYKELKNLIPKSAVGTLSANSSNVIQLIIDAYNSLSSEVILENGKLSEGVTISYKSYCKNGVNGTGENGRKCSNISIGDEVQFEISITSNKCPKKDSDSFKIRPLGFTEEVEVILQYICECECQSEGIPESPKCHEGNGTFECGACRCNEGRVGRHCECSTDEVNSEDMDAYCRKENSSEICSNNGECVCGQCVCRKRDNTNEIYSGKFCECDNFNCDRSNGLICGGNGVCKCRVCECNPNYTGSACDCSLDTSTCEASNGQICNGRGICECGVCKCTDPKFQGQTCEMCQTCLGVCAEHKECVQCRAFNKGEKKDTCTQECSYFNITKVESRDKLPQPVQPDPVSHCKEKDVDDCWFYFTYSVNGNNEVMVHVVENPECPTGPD
Assay [2] concerns the target integrin α5β1 (Homo sapiens) (UniProt P08648). Conditions: cited from earlier work.
The target of assay [3] is integrin α2β1 α2 ligand binding domain (Homo sapiens) (UniProt P17301). The conditions noted are these: cited from earlier work. This is another data set of the same source.

Sequence of α5β1 integrin (P08648 42-1049, chain 1 of 2): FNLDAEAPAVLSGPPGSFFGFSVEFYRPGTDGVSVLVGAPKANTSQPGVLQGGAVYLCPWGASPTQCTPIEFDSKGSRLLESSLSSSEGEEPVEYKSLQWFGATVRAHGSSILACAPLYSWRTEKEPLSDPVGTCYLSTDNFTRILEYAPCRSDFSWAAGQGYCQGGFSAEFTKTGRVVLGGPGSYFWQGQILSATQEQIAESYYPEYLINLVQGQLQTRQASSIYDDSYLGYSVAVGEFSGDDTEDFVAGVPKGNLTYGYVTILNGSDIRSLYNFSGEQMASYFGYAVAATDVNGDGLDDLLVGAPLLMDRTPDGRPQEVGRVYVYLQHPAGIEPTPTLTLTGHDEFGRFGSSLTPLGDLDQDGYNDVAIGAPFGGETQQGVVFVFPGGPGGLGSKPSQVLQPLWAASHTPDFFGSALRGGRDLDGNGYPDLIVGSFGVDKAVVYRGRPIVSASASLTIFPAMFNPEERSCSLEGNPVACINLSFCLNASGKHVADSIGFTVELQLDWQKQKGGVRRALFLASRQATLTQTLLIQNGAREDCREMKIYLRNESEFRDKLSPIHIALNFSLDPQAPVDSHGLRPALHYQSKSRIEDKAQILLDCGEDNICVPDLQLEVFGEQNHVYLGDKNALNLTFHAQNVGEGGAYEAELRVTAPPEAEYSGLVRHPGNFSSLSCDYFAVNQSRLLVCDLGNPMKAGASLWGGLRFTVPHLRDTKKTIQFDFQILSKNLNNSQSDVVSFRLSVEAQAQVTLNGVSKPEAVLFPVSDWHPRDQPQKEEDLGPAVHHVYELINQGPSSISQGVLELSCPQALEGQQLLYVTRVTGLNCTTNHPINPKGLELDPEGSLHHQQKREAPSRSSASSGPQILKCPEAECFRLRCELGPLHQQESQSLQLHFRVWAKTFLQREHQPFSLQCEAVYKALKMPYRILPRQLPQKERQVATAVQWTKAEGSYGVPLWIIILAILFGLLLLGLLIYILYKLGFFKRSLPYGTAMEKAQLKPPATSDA
Sequence of α5β1 integrin (P05556 21-798, chain 2 of 2, further chain): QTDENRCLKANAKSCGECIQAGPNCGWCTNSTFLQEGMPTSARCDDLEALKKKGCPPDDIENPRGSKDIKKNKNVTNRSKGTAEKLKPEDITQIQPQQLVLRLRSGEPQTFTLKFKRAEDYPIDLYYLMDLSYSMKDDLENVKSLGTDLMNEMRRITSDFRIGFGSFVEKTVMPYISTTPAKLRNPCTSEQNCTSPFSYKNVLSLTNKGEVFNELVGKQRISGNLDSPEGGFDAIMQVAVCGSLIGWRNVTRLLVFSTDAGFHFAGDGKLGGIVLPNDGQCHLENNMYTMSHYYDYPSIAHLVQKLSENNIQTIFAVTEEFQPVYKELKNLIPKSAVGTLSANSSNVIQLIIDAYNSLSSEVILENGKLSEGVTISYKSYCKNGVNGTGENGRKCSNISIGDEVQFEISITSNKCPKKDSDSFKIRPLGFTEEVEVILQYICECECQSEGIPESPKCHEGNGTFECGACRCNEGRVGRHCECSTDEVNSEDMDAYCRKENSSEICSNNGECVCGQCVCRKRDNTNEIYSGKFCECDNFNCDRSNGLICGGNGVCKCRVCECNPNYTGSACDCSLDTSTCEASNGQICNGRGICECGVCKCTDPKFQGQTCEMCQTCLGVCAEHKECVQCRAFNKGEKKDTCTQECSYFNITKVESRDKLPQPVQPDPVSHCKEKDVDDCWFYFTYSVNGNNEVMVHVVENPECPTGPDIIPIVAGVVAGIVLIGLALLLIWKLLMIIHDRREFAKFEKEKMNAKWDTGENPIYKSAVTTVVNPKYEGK
Sequence of Perlecan domain V Domain V (P98160 3687-4391): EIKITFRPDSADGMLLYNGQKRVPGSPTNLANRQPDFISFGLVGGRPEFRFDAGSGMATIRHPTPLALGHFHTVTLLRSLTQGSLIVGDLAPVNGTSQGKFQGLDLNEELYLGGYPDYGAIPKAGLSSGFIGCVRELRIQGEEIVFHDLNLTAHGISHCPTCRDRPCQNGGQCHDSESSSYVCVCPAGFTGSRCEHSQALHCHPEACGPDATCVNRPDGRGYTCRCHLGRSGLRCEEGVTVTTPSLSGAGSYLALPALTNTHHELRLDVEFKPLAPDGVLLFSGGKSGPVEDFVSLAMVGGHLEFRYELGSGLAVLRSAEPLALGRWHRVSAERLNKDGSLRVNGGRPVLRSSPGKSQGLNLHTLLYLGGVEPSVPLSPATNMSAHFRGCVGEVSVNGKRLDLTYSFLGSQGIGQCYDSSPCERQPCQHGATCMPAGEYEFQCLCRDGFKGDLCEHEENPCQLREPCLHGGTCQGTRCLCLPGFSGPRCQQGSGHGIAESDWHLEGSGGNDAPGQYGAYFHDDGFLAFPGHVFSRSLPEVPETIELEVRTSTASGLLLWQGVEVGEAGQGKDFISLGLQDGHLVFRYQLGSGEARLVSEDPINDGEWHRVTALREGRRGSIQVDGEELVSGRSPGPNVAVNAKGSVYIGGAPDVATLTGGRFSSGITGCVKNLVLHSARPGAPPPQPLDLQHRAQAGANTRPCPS
Sequence of Perlecan LG3 LG3 (P98160 4194-4391): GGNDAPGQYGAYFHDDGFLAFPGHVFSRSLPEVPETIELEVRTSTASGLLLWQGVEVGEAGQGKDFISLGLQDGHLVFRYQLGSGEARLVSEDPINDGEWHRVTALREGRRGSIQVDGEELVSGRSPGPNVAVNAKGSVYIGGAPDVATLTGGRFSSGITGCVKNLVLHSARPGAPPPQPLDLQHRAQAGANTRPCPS

For the substance “D3904A DV (perlecan Domain V with A in place of the D of its DGR sequence) (domain or fragment; other documents disagree on this pair)”, in the assay with α5β1 integrin, the pKd was 6.43, the koff was 0.22 s⁻¹ and the kon is 600000 M⁻¹ s⁻¹.

“Perlecan domain V Domain V (from UniProt P98160)”: the values for the pKd in assay [1] and in assay [2] were 7.10 and 6.80, respectively.

For Perlecan LG3 LG3 (from UniProt P98160), the pKd in assay [3] is 6.00.

The pKd is −log10 of the Kd, conventionally taken in molar units. Usually koff stands for the first-order rate constant of dissociation. As a reminder, the kon is the rate constant with which the complex forms.
